Assay results taken from patent publication US20170369542A1 (Pieris, published 2017).

Legend:
[1] = molecular target: T1, synthetic non-modified human Hepcidin-25 (human, not fully specified); assay: competition ELISA: non-biotinylated human hepcidin-25 titrated against a constant concentration of mutein; free mutein detected on plate-captured biotinylated human hepcidin
T1 construct: also called hHepcidin-25; non-biotinylated human hepcidin
T1 peptide: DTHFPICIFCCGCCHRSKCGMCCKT
Method: The binding affinity of the Lcn2 muteins to non-modified hepcidin-25 in solution was evaluated in a competition ELISA approach. Therefore, a constant concentration of 1 μg/ml C-terminal biotinylated human hepcidin (Bachem AG, CH) was captured on the surface of a polystyrol plate (Greiner, GE) via Neutravidin (Thermo Scientific, 5 μg/ml, GE). In parallel a two step dilution series of non-biotinylated human hepcidin starting from 1 μM was incubated with a constant concentration of hepcidin-specific mutein for 1 h at room temperature in a non-protein binding 96 well polypropylene plate (Nunc, GE). The constant concentration of lipocalin muteins corresponds to the EC₅₀ of the respective muteins as determined in a direct ELISA as described above in this example. In the following the mixture of non-modified human hepcidin and lipocalin mutein was transferred onto the hepcidin-captured Neutravidin plate. The C-terminal biotinylated hepcidin was allowed to compete with the non-modified hepcidin for Anticalin binding for 20 min. at room temperature. During these 20 min, free lipcocalin mutein was bound to the captured hepcidin and detected via a rabbit anti-strep-tag II polyconal antibody (GenScript, USA). A goat anti-rabbit IgG-HRP conjugate (Abcam, UK) was employed as secondary detection antibody. Parallel to the competition assay, anticalin binding was determined on the same plate in a “direct” ELISA, in order to obtain a standard curve linking the RFU values to anticalin concentration. This curve was then used to standardize competition data to the level of anticalins bounds to the plate and fitted with Graphpad software. IC₅₀ values correspond to the half-maximum amount of lipocalin mutein bound to the plate.

[2] = molecular target: T2, C-terminal biotinylated human Hepcidin-25 (human, not fully specified; biotinylated via a Lysine residue coupled to the C-terminus via a Mini-PEG linker); assay: direct ELISA, biotinylated hepcidin captured via Neutravidin, mutein titrated
T2 construct: Bought from Bachem AG; Captured on plates via Neutravidin; also called C-terminal biotinylated hepcidin; C-terminal biotinylated hHepcidin
T2 peptide: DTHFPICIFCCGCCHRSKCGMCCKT
Method: (§1) A “direct” ELISA was performed to verify the binding affinity and specificity of the selected Lcn2 muteins. Therefore, a constant concentration of 1 μg/ml C-terminal biotinylated hepcidin (Bachem AG, CH) was captured on the surface of a polystyrol plate (Greiner, GE) via Neutravidin (Thermo Scientific, 5 μg/ml). Two step dilution series of purified Lcn2 muteins were incubated with the captured hepcidin for 1 h at room temperature and detected either via the Strep-tag II using a rabbit anti-strep-tag II polyconal antibody (GenScript, USA) or by using a scaffold-specific polyclonal rabbit antibody. In both cases an anti rabbit IgG-HRP conjugate (Abcam, UK) was employed as secondary detection antibody.
(§2) The absorption ΔA at […] was measured in an ELISA reader (Tecan, GE) and the data were fitted with Graphpad Prism software (Statcom, USA).

cynomolgus Hepcidin-25 [3] = molecular target: T3, cynomolgus Hepcidin-25 (cynomolgus, UniProt A7XEI3 60-84, not fully specified); assay: direct ELISA on cynomolgus hep-25, mutein titrated
T3 construct: mature
T3 peptide: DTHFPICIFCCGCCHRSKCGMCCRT
Method: as §1, §2

[4] = molecular target: T1, synthetic non-modified human Hepcidin-25; assay: cell-based or functional assay
cynomolgus Hepcidin-25 [5] = molecular target: T3, cynomolgus Hepcidin-25; assay: SPR, Biacore T100, mutein amine-coupled to CM5 chip, hepcidin as analyte, 25 C
Method: (§3) Lipocalin muteins were immobilized to a CM5 sensor chip using standard amine chemistry: The surface of the chip was activated using EDC and NHS. Subsequently, 20 μg/mL lipocalin mutein solutions in 10 mM sodium acetate pH 4.5 (60 μg/mL in 10 mM sodium acetate pH 4.0 for pegylated lipocalin mutein) were applied at a flow rate of 5 μL/min until a surface density of 500-700 resonance units (RU) for non-modified lipocalin muteins and of approximately 1600 RU for pegylated lipocalin with the sequence of SEQ ID NO: 13 was achieved. Residual activated groups were saturated with ethanolamine. The reference channels were treated with EDC/NHS following ethanolamine (blank immobilization). All reagents and materials were purchased from GE Healthcare.
(§4) Serial dilutions of human and cynomolgus Hepcidin-25 in running buffer (HBS-EP+, GE Healthcare, BR-1006-68) were applied to the prepared surface. The following parameters were used for the binding assay: contact time 60 s, dissociation time 180-360 s, flow rate 30 μL/min. All measurements were performed on a Biacore T100 instrument (GE Healthcare) at 25° C.
(§5) Data were evaluated with Biacore T100 Evaluation software (V 2.0.1). Double referencing was used. The 1:1 Binding model (Langmuir) was used to fit the raw data.

[6] = molecular target: T1, synthetic non-modified human Hepcidin-25; assay: SPR (Biacore T100), mutein immobilized on CM5 chip, hepcidin-25 in solution, 1:1 model
Method: as §3, §4, §5

cynomolgus Hepcidin-25 [7] = molecular target: T3, cynomolgus Hepcidin-25; assay: as above
Method: as §3, §4, §5

B1: lipocalin mutein of SEQ ID NO: 2 (designed binder)
chain: QDSTSDLIPAPPLSKVPLQQNFQDNQFHGKWYVVGTAGNSILREDKDPQKMWATIYELKEDKSYNVTRVFFEGKKCRYVIETFVPGSQPGEFTLGKIKSAPGGTSILVRVVSTNYNQHAMVFFKVVWQNRELFWITLYGRTKELTSELKENFIRFSKSLGLPENHIVFPVPIDQCIDG
notes: also called Lcn2 mutein
IC50 [1]: 9 nM | Kd [2]: 2.12 nM | Kd (cynomolgus Hepcidin-25 [3]): 3.15 nM | IC50 of neutralization of hepcidin-induced (40 nM) internalization and degradation of FPN-GFP in T-REx-293 cells, GFP fluorescence by flow cytometry [4]: 62 nM

B2: lipocalin mutein of SEQ ID NO: 3 (designed binder)
chain: QDSTSDLIPAPPLSKVPLQQNFQDNQFHGKWYVVGVAGNGLLREDKDPLKMHATIYELKEDKSYNVTRVLFVRKKCRYYISTFVPGSQPGEFTLGRIKSEPGRTSFLVRVVSTNYNQHAMVFFKMVWQNREVFWITLYGRTKELTSELKENFIRFSKSLGLPENHIVFPVPIDQCIDG
notes: also called Lcn2 mutein
IC50 [1]: 0.38 nM | Kd [2]: 0.84 nM | Kd (cynomolgus Hepcidin-25 [3]): 0.59 nM

B3: lipocalin mutein of SEQ ID NO: 4 (designed binder)
chain: QDSTSDLIPAPPLSKVPLQQNFQDNQFHGKWYVVGVAGNEMLREDKDPLKMLATIYELKEDKSYNVTRVMFEYKKCVYLIETFVPGSQPGEFTLGTIKSVPGLTSGLVRVVSTNYNQHAMVFFKRVWQNREVFWITLYGRTKELTSELKENFIRFSKSLGLPENHIVFPVPIDQCIDG
notes: also called Lcn2 mutein
IC50 [1]: 0.6 nM | Kd [2]: 1.39 nM | Kd (cynomolgus Hepcidin-25 [3]): 2.03 nM | IC50 of neutralization of hepcidin-induced (40 nM) internalization and degradation of FPN-GFP in T-REx-293 cells, GFP fluorescence by flow cytometry [4]: 62 nM

B4: lipocalin mutein of SEQ ID NO: 6 (designed binder)
chain: QDSTSDLIPAPPLSKVPLQQNFQDNQFHGKWYVVGLAGNEILREDKDPLKMWATIYELKEDKSYNVTRVQFGEKKCGYGIETFVPGSQPGEFTLGSIKSVPGGTSRLVRVVSTNYNQHAMVFFKFVWQNREVFWITLYGRTKELTSELKENFIRFSKSLGLPENHIVFPVPIDQCIDG
notes: also called Lcn2 mutein
IC50 [1]: 1.7 nM | Kd [2]: 0.76 nM | Kd (cynomolgus Hepcidin-25 [3]): 0.79 nM | IC50 of neutralization of hepcidin-induced (40 nM) internalization and degradation of FPN-GFP in T-REx-293 cells, GFP fluorescence by flow cytometry [4]: 65 nM

B5: lipocalin mutein of SEQ ID NO: 5 (designed binder)
chain: QDSTSDLIPAPPLSKVPLQQNFQDNQFHGKWYVVGAAGNSLLREDKDPMKMWATIYELKEDKSYNVTRVNFGGKKCSYLIETFVPGSQPGEFTLGSIKSRPGATSVLVRVVSTNYNQHAMVFFKLVTQNREVFWITLYGRTKELTSELKENFIRFSKSLGLPENHIVFPVPIDQCIDG
notes: also called Lcn2 mutein
IC50 [1]: 10.8 nM | Kd [2]: 4.13 nM | Kd (cynomolgus Hepcidin-25 [3]): 6.83 nM

B6: lipocalin mutein of SEQ ID NO: 7 (designed binder)
chain: QDSTSDLIPAPPLSKVPLQQNFQDNQFHGKWYVVGLAGNRVLREDKDPQKMFATIYELKEDKSYNVTGVDFRTKKCLYSIGTFVPGSQPGEFTLGVIKSQPGWTSYLVRVVSTNYNQHAMVFFKTVWQNREVFWITLYGRTKELTSELKENFIRFSKSLGLPENHIVFPVPIDQCIDG
notes: also called Lcn2 mutein
IC50 [1]: 1.3 nM | Kd [2]: 0.48 nM | Kd (cynomolgus Hepcidin-25 [3]): 0.22 nM | IC50 of neutralization of hepcidin-induced (40 nM) internalization and degradation of FPN-GFP in T-REx-293 cells, GFP fluorescence by flow cytometry [4]: 79 nM

B7: lipocalin mutein of SEQ ID NO: 10 (designed binder)
chain: QDSTSDLIPAPPLSKVPLQQNFQDNQFHGKWYVVGLAGNEILREDKDPMKMWATIYELKEDRSYNVTIVMFLAKKCEYLFQTFVPGSQPGEFTLGDIKSSPGRTSGLVRVVSTNYNQHAMVFFKVVWQNREVFWITLYGRTKELTPELKENFIRFSKSLGLPENHIVFPVPIDQCIDGF
notes: also called Lcn2 mutein
IC50 [1]: 0.18 nM | Kd [2]: 0.75 nM | Kd (cynomolgus Hepcidin-25 [3]): 0.82 nM | IC50 of neutralization of hepcidin-induced (40 nM) internalization and degradation of FPN-GFP in T-REx-293 cells, GFP fluorescence by flow cytometry [4]: 25 nM

B8: lipocalin mutein of SEQ ID NO: 1, linked to albumine-binding domain (ABD) (SEQ ID NO: 15) (designed binder)
chain: QDSTSDLIPAPPLSKVPLQQNFQDNQFHGKWYVVGLAGNEVLREDKDPMKMWATIYELEEDKSYNVTIVMFLAKKCEYLFQTFVPGSQPGEFTLGDIKSSPGRTSGLVRVVSTNYNQHAMVFFKVVWQNREVFWITLYGRTKELTSELKENFIRFSKSLGLPENHIVFPVPIDQCIDGSAGAVDANSLAEAKVLANRELDKYGVSDYYKNLINNAKTVEGVKALIDEILAALPSAWSHPQFEK
notes: also called ABD-fusion protein
IC50 [1]: 0.37 nM | Kd [2]: 0.48 nM | Kd (cynomolgus Hepcidin-25 [3]): 0.22 nM | IC50 of neutralization of hepcidin-induced (40 nM) internalization and degradation of FPN-GFP in T-REx-293 cells, GFP fluorescence by flow cytometry [4]: 39 nM

B9: lipocalin mutein of SEQ ID NO: 1 (designed binder)
chain: QDSTSDLIPAPPLSKVPLQQNFQDNQFHGKWYVVGLAGNEVLREDKDPMKMWATIYELEEDKSYNVTIVMFLAKKCEYLFQTFVPGSQPGEFTLGDIKSSPGRTSGLVRVVSTNYNQHAMVFFKTVWQNREVFWITLYGRTKELTSELKENFIRFSKSLGLPENHIVFPVPIDQCIDG
notes: also called Lcn2 mutein; hNGAL mutein
IC50 [1]: 0.34 nM | Kd [2]: 0.26 nM | Kd (cynomolgus Hepcidin-25 [3]): 0.43 nM | IC50 of neutralization of hepcidin-induced (40 nM) internalization and degradation of FPN-GFP in T-REx-293 cells, GFP fluorescence by flow cytometry [4]: 66 nM | fold higher affinity compared to the human target (cynomolgus Hepcidin-25 [5]): ~2 fold | Kd [6]: 0.589 nM | koff [6]: 0.00116 s⁻¹ | kon [6]: 1.97e+06 M⁻¹ s⁻¹ | Kd (cynomolgus Hepcidin-25 [7]): 0.332 nM | koff (cynomolgus Hepcidin-25 [7]): 0.000934 s⁻¹ | kon (cynomolgus Hepcidin-25 [7]): 2.84e+06 M⁻¹ s⁻¹

B10: lipocalin mutein of SEQ ID NO: 14, linked to PEG40 (designed binder)
chain: QDSTSDLIPAPPLSKVPLQQNFQDNQFHGKWYVVGLAGNEVLREDKDPMKMWATIYELEEDKSYNVTIVMFLAKKCEYLFQTFVPGCQPGEFTLGDIKSSPGRTSGLVRVVSTNYNQHAMVFFKTVWQNREVFWITLYGRTKELTSELKENFIRFSKSLGLPENHIVFPVPIDQCIDG
modifications: branched 40k PEG-maleimide on the free Cys at position 87
notes: hNGAL mutein with Ser 87 back-mutated to Cys and PEGylated there
IC50 [1]: 1.17 nM | Kd [2]: 2.18 nM | Kd (cynomolgus Hepcidin-25 [3]): 1.36 nM | IC50 of neutralization of hepcidin-induced (40 nM) internalization and degradation of FPN-GFP in T-REx-293 cells, GFP fluorescence by flow cytometry [4]: 25 nM

B11: lipocalin mutein of SEQ ID NO: 11 (designed binder)
chain: QDSTSDLIPAPPLSKVPLQQNFQDNQFHGKWYVVGLAGNEILREDKDPMKMWATIYELKEDKSYNVTIVMFLAKKCEYLFQTFVPGSQPGEFTLGDIKSSPGRTSGLVRVVSTNYNQHAMVFFKVVWQNREVFWITLYGRTKELTSGLKENFIRFSKSLGLPENHIVFPVPIDQCIDG
notes: also called Lcn2 mutein
IC50 [1]: 0.11 nM | Kd [2]: 0.64 nM | Kd (cynomolgus Hepcidin-25 [3]): 0.61 nM | IC50 of neutralization of hepcidin-induced (40 nM) internalization and degradation of FPN-GFP in T-REx-293 cells, GFP fluorescence by flow cytometry [4]: 31 nM

B12: lipocalin mutein of SEQ ID NO: 9 (designed binder)
chain: QDSTSDLIPAPPLSKVPLQQNFQDNQFHGKWYVVGLAGNEVLREDKDPMKMWATIYELKEDKSYNVTIVMSLAKKCEYLFQTFVPGSQPGEFTLGDIKSSPGRTSGLVRVVSTNYNQHAMVFFKVVWQNREVFWITLYGRTKELTSGLKENFIRFSKSLGLPENHIVFPVPIDQCIDG
notes: also called Lcn2 mutein
IC50 [1]: 0.12 nM | Kd [2]: 0.75 nM | Kd (cynomolgus Hepcidin-25 [3]): 1.14 nM

B13: lipocalin mutein of SEQ ID NO: 12 (designed binder)
chain: QDSTSDLIPAPPLSKVPLQQNFQDNQFHGKWYVVGLAGNEVLREDKDPMKMWATIYELKEDKSYNVTIVMFLAEECEYLFQTFVPGSQPGEFTLGDIKSSPGRTSGLVRVVSTNYNQHAMVFFKVVWQNREVFWITLYGRTKELTSELKKNFIRFSKSLGLPENHIVFPVPIDQCIDG
notes: also called Lcn2 mutein
IC50 [1]: 0.17 nM | Kd [2]: 0.64 nM | Kd (cynomolgus Hepcidin-25 [3]): 0.96 nM
